Test results taken from patent US7910549.

Molecular target: complete MN/CA IX protein (MN/CA IX+), from Vero cells infected with vaccinia virus carrying the complete coding region of MN/CA IX (human) (UniProt Q16790)
Assay: cell-based or functional assay

Substance: monoclonal antibody M75 (MAb M75), secreted by hybridoma VU-M75, ATCC HB 11128
- cell attachment to purified MN/CA IX+ (fold dilution of ascites fluid): 1000
